The nature of this data set: protease stability score; higher = more stable; yeast display proteolysis, trypsin and chymotrypsin.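 Also: relative to predicted unfolded state with 0 unfolded-like and 1 meaning tenfold more protease.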
Regarding “TEMNDEARRAMKDFIEHLRTGDEDRLDKMLDPHVRMEINGRTFHGREDAIKWHREIRLEDITVKFSTIQGDKVRFFGEEDGIIDGQRHKTEVELIIRKVNGRWFIHEIQVH”, the protease stability score amounted to 1.27.
Consider “DEEEEHFKWLVKLIFDAYLTGDEEVLYERADPNVRIDFNGVELHGREEMQRHLEHLMKKFKGLRIELKHFHIQGDKMFFQTEYRYNGKTVEARLFFDVVNGRLKRIIIEHR”, for which the protease stability score was 1.48.
For “SEKEELDQKFIEDYIRHLLTGDFESLTKMADPNVRLSIDGQNHHGRENFERFAFEWIEKYKNVRIHVRDVHVVDGQAHIIMTLDINGKTREVHIEVFIVNGRIKSNELRYR” the value was 1.36; for “DNEDKLAEQMLKEILELWHTGDEEKWSNLADPNTRIHINGQESHGRDNFHKFWEDFHSTLGIDVLKFSLKDFRIQGDKSRVDVETKVKQGDKSEHYRTFLIFIIVDGRVKTIEIRIK”, 0.703; for “DERTKQFNELLHIFIRDLHTGDEESHERMMDPNVRTEVGEFRMHGRENVRHWWHEWLRLLGLDRIEVRVRDHHVIDGRLRIDVELKQGDKNIDTHVILVVINGRMHSQRYEFH”, 0.717.
In the case of “HDEERDSKIASSIMVETWKTGNEHLMERMFDPHTRSHVGDKEIHGMEEFIRWLYELLRKIKNARFTVEDTDLINGVVVVITRLHVGDKDFLLTFFVEKFNGRWHLRSFEMK” it was 0.772; in that of “DEERELTEKLTRKLIHNWLTGDPEAIRRMLDPNVRVIINGQELHGRERFHEHMHHLLRHMRIDHIDIKDWKFQGEKFHIDLHVHGTIDGVHFIHRTESSVIIVNGKIHQMHVHEI”, 1.41; in that of “SEFEEALKEHVKNIIRSVRTGDENELRRQLDPDAKLRINGQDYVGMEYVFHYLFEWRIHDTELKHIHVQGDKLTFNGETTGTYDGQKIHVRIRIIIWKVDGRWLSEHIDVI”, 1.66.
With “DEDKEEIMEAIKEFLTNLQTGDEERLFELFDPHVRLKVNGQLYHGREDLVRHLSELGVKHWRLRSVEIQGEKAIMHGLVNVDGRSVRMIIEAEKVNGRWRMRHFESH”, the protease stability score amounted to 1.84.
In the case of “DEEEHSAEHAIRILIELLYTGDEDQLERFMDPNTRLHIYFEGHEIHHHGMELISEIFSEIIHRIKNITYRVEDFHLVNGRVHLHGRWNINGKRTKEHWVVLKVDGVWILERVHIHIQ” it was 1.27; in that of “SEEEEKFHRFYKLLLEMILTGNWKEVWDLMDPNARLDVIIGDKSIHNHGWKVILEFMREIRIRHVHIKHMEVYNGRIHLDEHRDIHFNGRDIRSDVIIHAVVIDGRFHHERIEFL”, 0.751.
In the case of “DEDHKHSEEAIKRWIDTMVTGDERLFNHLADPHTKIEFNGVDNHGMEEAVRVMIFIFRLLGVDHIRIEFRERHVFNGKVVWHFHLERRIGDKTEHINTHILMEKVDGRWLIQSERYE” it was 1.56.
In the case of “SELHEDAEEIAKQFSRAWTTGDFEELDKLFDPNARIEYGDYEVHGRHIVSKFLRQIRIKEVRFIVRRVEHYDGRIRLWGELTLHGNINGRDFDLHTKSDLLVIKIDGRWVVEQYIIR” it was 1.47; in that of “DEHEEELKRILELIEHLIHTGDEDTMLHLADPNVRSHVNGRDRHGWNLYLRLLEELVWRLGIKHMEIHSTTAIDGRVIIHMRLHVGDKTIHVILLFQVVDGRVKSSSVEVHEE”, 1.44.
In turn, “SDWDKITKEMAELILTAEETGDFKTLWRLMDPNVKLNIGDKTHHGREEYLKWMHEHLKKVPNLTLKLRDVHVQGDKVHLRVEVEIGDKTIDSEIHLEIINGRIEHLRIIDL” yielded a protease stability score of 0.957.
For the sequence “TEEKHELEKLAKIMFEIIETGDEKTWDELLDPNMRSDVNGVENIGREKVDKAILHYIKRIPNVRIQFTDMHIQGDKVIIRTEVHIGDYREELIIEVVVVNGRFKSFRLTLRRE”, the protease stability score came out at 1.22.
The sequence “SEDERDARTMTEEITHIIETGDEHRFQELADPNMRLEQGEYHRHGREQVVEFLREVLRELRLKHIHIKDIHVIDGRVIIDVWVHSQYGDKEFTVKVIWIVHKIDGRWIFHSVRIE” came in with a protease stability score of 1.35.
For “SRIEKLIEHLVHLWLEIWRTGDEHSFTRLLDPHVRLRIGDKHFIGREDVVKFLRDHEKEWREDDVEIRDIRTQGDFLEVEITITGRFNGRDITREFRITMIVVDGRVKEIRISYE” the value was 2.05; for “TEEEELAHEALRRFTREWVTGDEDLLQNLLDPHTKIEIDGRELHGWHEMVRYYRHLGFDVNEFHLHRFHIQGDKIRVDGELRFHVDGRTHTIRFTIVARKVNGKWLNTHEHYK”, 0.721; for “DEDHKEVKHILRMWMENLYTGDEELNNRLLDPNARWEVNGRDIHGRELILKVLSNEYTEWRMKHIKIDHVENVNGQVHVDITIKYDINGQEINLRTHIRIYIINGKIHEIHISIH”, 0.576.
In the case of “DEHKEQLRRIFELMLHLFLTGDWKQLWELADPHARFRIDGRDIHGRDNFAEEVKRIVDEWRIHIDPRHIDVFDGVNHVRTDLFFEYDGRKLRHHTRVINIVVDGRLKEVEFRIE” it was 1.36; in that of “DETRRHTEELFHWLLRAFMTGDFKLSYDNADPDVRFIINGRRDHGRDLYVRDLRHMRVHDSKVNHIHFEFQGDWAVVRVDGHIFGEYDGQHFNLRVEIRIIINKIDGRWSLESVEIRIH”, 0.812.
Regarding “TEEEHLVEEMARRMLHSWLTGDEETLERLLDPNVRLEMIIDGVELRLHGREDMSRWLREWVERVDHVEIEIKRIRLIGEKSILDGQIHERQGDKERVIKTEIIVVVVDGRIHNSKIIIR”, the protease stability score is 1.14.
In the case of “DEEEEEMHRRARIFLELWMTGNEEVFNTLFDPNVRLHMNIGEKTHDFVGRETVHEVNRRWLEHIRIEDFKVREIRVQGDYATSDTRIVGIFDGRRIDIDVKIHILIVDGRLKEVELRFD” it was 2.1.
On to “DEEDEILERLFKLWIEEFLTGDWEAFHRYFDPRTRIHIGDKHHHGRTEYEKVAKHLNKRIDHVIIIIRRMEHQGDYIKVDTESRHKIDGVDISTHYILHHRIVDGKIHEIDVIYL”, for which the protease stability score amounted to 0.647.
Consider “THEQKLSHEITHIFWEILKTGDEHEMRRLADPNVQLEINGVERHGMHVLEHWLVHLGIDHLHVTDHRVQGEYSYWDTTLRVGDKERTIHLEVLAFNGRVKAFRLHVR”, for which the protease stability score is 1.22.
Turning to “SEYEEEVRRAMELEIRSIKTGNEELIKHLMDPNVRLVIGDKNFHGREAIEVFVERFDYIHEVEITSIDLQGDFVNMRGVLDGRINGQRLRTKVHYISRKVDGRWFSESIHIR”, the protease stability score is 0.66.
For “TEDERMVSEHLKQWLHSLRTGDEDTIQRLFDPHTRIIFEGHEFIGMEDMEEWLTKFHEEARSHKLIIKRIHIIGDKVHVEGVLDGEYNGRRHELKVIIIALKINGRWVMHQIEIR” the value was 1.97; for “HEEEEEAERFVKEIIHSWKTGNEDDMHRLVDPNVRLIIGDKTYHGRENFVKHMEEWLQRAGVKHFHLRKVDVFDGKLDIHSEVRQGSDETELHISVEKINGRWRLQLVIIV”, 1.7; for “DEEEHALWHWFQEHVHALETGDEDTLRELADPNVRLDINGKRIHGRHQLEHLIHRIDHMRIDDYKIDHVDRQGEKVIIDGTFHGKIIQGDKTIHMHTRVIIILLKVDGQWRLKSEQID”, 1.12.
The sequence “SEEEEIVEKMARDLFEAMRTGDEDTLLKLLDPNVKHHWNGVEYHGWHDLHHWVERFKNMKVHFRINSVKVIGEKVHIKGELNLIFNGKIIRTDVDIHINLFNGRIKESTSDTN” displayed a protease stability score of 2.04.
Take “DHEEKHLEHFLHLITHLEHTGDERTLEKLVDPHVRHEFNGKELHGRERAVRWSEELRQKMGADHWSIKRVNVFDGVVHLHTELEVNGVRVHFHIDVRVVDGRVKHIKIRNE”: the protease stability score was 0.861.
In the case of “SEDEEEIKKAVEILLKELRTGDEDSFEKNLDPNARVHDENHRSHGREEVTKWFYEFRKKFKNARHTFEHIIVVGDKVINHMRVEIDGVTINSLWFIKKVDGRWVITSIHIN” it was 2.26; in that of “EEEDEWSREAVEFFKRMVETGDEDLQETLADPNARLIQGDKDEHGRHVLSEWMHRMGVDHIRFHHIDVQGDKVRLDFTMRVNGRQIHVKINNMKVNGQWRIKSVHLR”, 0.537.

For the origin of these results see the NTF2 design screens of Basanta et al. (2020).
